For experiment [1], the target named is Focal adhesion kinase (FAK), human (human) (UniProt Q05397). The experiment can be described thus: immunoprecipitation from ARPE-19 and ARPE-19/EMP2 lysates, Western blot densitometry.
The target is the same in experiment [2]. Briefly: co-immunoprecipitation, Western blot for FAK, ARPE-19 cells (figure legend).
Experiment [3] has the same target. The experiment can be described thus: co-immunoprecipitation with anti-EMP2 antibody, Western blot densitometry, ARPE-19 cells. (In western blotting, separated proteins are transferred to a membrane and probed.)
For experiment [4] the target is unchanged. Briefly: co-immunoprecipitation, ratio of co-immunoprecipitate to cognate immunoprecipitate, ARPE-19/EMP2 cells.
For experiment [5] the target is unchanged. The experiment can be described thus: co-immunoprecipitation, ratio of co-immunoprecipitate to cognate immunoprecipitate, ARPE-19 cells.
The target is the same in experiment [6]. The experiment can be described thus: co-immunoprecipitation with anti-EMP2 antibody, Western blot densitometry, ARPE-19/EMP2 cells.
Experiment [7] has the same target. The experiment can be described thus: cell-based or functional assay.

Focal adhesion kinase (FAK), human (human), sequence (Q05397 2-1052): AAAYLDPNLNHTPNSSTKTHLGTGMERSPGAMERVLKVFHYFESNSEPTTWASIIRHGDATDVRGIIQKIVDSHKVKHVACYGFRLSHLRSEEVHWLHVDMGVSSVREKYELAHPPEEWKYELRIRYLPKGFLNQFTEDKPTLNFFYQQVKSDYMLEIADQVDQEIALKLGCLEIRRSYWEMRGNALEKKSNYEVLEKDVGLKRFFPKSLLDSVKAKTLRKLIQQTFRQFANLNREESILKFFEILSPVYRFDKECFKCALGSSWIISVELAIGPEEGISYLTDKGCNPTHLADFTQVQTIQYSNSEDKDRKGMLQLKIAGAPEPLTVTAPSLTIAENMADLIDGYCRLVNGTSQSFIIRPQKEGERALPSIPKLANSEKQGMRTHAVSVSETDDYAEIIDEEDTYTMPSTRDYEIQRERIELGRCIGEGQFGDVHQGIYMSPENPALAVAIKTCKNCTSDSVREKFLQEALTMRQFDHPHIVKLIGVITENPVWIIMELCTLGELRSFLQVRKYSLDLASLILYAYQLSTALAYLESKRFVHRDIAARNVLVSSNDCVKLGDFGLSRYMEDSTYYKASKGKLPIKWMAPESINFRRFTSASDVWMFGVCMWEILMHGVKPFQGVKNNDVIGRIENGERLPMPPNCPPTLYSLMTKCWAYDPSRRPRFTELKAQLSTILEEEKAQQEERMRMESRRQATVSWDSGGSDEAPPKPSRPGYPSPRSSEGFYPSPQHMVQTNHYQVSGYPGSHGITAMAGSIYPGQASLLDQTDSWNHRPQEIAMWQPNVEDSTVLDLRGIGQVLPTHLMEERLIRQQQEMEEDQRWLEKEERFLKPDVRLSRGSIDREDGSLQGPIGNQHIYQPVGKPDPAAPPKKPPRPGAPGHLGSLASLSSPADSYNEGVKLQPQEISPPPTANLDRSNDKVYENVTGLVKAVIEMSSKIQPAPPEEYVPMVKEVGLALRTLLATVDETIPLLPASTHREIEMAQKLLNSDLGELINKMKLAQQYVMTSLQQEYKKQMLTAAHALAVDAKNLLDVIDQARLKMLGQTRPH

As for “Anti-FAK polyclonal antibody (Santa Cruz Biotechnology, clone C-20)”, the cognate immunoprecipitation efficiency in experiment [1] was 50 to 60%.

Consider “Epithelial membrane protein 2 (EMP2), human (from UniProt P54851 1-167)”, for which the percent of total FAK co-immunoprecipitated by EMP2 in experiment [2] was 25%. The figures for the level of FAK in the EMP2 immunoprecipitates in experiment [3] and in experiment [6] were 12% and 15%, respectively. The values for the percent of total FAK associated with EMP2 in experiment [4] and in experiment [5] were 30% and 24%, respectively. In addition, the percent of FAK at the cell surface contacting the glass slide colocalized with EMP2 (confocal microscopy, ARPE-19/EMP2 cells) in experiment [7] is 96%. Moreover, in experiment [7], the percent of FAK at the cell surface contacting the glass slide colocalized with EMP2 (confocal microscopy, ARPE-19 cells) stood at 68%.

The values above are taken from patent US20130004493A1.
